According to patent US20180038857A1 (published 2018):
Bridge positions count the residues as written; N and C are the ends. * marks the point of attachment. Biotin = O=C1N[C@H]2[C@H](CS[C@H]2CCCCC(=O)*)N1

Assays:
Assay in all cases: cell depletion on chemokine-streptavidin Sepharose column, flow cytometry for CCR1, 3 and 5-expressing cells
hCCR3 = biological target: T1, hCCR3 (human, UniProt P51677 1-355)
T1 construct: whole, on cells
T1 sequence (looked up): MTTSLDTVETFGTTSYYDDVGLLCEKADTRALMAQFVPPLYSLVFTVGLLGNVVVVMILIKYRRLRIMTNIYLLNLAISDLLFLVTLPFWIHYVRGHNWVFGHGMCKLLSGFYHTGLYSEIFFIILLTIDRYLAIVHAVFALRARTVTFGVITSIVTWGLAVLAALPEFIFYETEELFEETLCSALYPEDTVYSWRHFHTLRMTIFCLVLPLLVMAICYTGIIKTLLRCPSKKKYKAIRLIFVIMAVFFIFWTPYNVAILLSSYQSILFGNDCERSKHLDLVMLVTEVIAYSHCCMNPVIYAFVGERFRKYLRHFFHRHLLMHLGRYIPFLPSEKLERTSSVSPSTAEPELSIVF
Experimental: (§1) To investigate the ability to eliminate CCR1, 3 and 5-expressing cells, in vitro tests have been performed on the biotinylated RANTES coupled matrix. Blood was collected from blood donors and passed through the column device containing biotinylated RANTES coupled matrix. Blood samples were taken before and after column passage and analyzed by flow cytometry (FACS) for the depletion of CCR1, 3 and 5-expressing cells.
(§2) Depletion tests were performed on blood from a healthy donor.

hCCR5 = biological target: T2, hCCR5 (human, UniProt P51681 1-352)
T2 construct: whole, on cells
Experimental: as §1, §2

CCR1 = biological target: T3, CCR1 (human, UniProt P32246 1-355)
T3 construct: whole, on cells; Endogenous receptor on blood cells in the RANTES depletion test
T3 sequence (looked up): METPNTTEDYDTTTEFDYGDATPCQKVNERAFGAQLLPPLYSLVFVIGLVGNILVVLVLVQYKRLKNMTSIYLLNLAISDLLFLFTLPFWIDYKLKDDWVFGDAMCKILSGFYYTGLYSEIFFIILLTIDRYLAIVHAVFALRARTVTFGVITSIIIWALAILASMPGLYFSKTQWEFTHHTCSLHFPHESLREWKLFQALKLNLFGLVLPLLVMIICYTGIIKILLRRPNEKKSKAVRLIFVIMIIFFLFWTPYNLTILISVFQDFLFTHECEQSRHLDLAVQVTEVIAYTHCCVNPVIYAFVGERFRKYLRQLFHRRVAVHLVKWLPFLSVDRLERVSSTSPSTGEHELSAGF
Experimental: as §1, §2

T2 sequence (P51681 whole entry): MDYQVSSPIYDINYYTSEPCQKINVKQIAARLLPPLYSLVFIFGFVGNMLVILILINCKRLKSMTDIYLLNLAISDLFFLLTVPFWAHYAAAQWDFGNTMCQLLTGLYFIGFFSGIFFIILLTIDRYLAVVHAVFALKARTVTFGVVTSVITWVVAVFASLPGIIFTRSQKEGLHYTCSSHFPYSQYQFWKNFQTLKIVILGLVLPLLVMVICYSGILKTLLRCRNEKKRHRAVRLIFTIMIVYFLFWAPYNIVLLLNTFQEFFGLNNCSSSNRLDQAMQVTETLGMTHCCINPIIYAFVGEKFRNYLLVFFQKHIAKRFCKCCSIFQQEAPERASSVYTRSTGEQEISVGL

reduction of chemokine receptor-expressing cells by the column (hCCR3): ~20% | reduction of chemokine receptor-expressing cells by the column (hCCR5): ~20% | reduction of chemokine receptor-expressing cells by the column (CCR1): ~20%
B1: biotinRANTES (CCL5): RANTES derivatised at the ε-amino side chain functionality of Lys(67) with Biotin (ligand)
chain: H-SPYSSDTTPCCFAYIARPLPRAHIKEYFYTSGKCSNPAVVFVTRKNRQVCANPEKKWVREYINSLEK(Biotin)S-OH
modifications: disulfide 10-34, 11-50; also: TFA salt
notes: It is treated here as the same molecule; also called biotinylated RANTES
